Drawing on PMC314469, “Protein Interaction Networks by Proteome Peptide Scanning” (PLoS Biology, 2004), this text covers normalised SPOT signal, Boehringer light units (BLU); mean over the file's lines of this peptide for 54 molecules.

T1: Abp1 SH3 (ABP1_YEAST), P15891
T1 chain: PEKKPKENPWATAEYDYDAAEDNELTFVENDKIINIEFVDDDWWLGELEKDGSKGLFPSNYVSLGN

This assay concerns the target T1, Abp1 SH3 (ABP1_YEAST), P15891. Nature of the assay: SPOT array.
For SISSKIRPTPRKP [YER118C 2-14], the normalised SPOT signal, Boehringer light units (BLU); mean over the file's lines of this peptide was determined as 15700.

For the molecule SDINQLQGVYPSRP [YBR026C 64-77], the normalised SPOT signal, Boehringer light units (BLU); mean over the file's lines of this peptide is 98.7.

The molecule RYTYLPSPSYFRP [YPL066W 175-187] gave a normalised SPOT signal, Boehringer light units (BLU); mean over the file's lines of this peptide of 276.

The molecule SGNKEAIPALIKP [YKL157W 770-782] showed a normalised SPOT signal, Boehringer light units (BLU); mean over the file's lines of this peptide of 82.8.

SDISAMQPVNPKP [YPR182W 5-17] yielded a normalised SPOT signal, Boehringer light units (BLU); mean over the file's lines of this peptide of 124.

In turn, SIQSKIMLESPKKP [YJL147C 308-321] registered a normalised SPOT signal, Boehringer light units (BLU); mean over the file's lines of this peptide of 289.

On to SLKFSLLNHHPYKP [YPR025C 204-217], for which the normalised SPOT signal, Boehringer light units (BLU); mean over the file's lines of this peptide is 186.

In the case of SLLEFPLTDLPKKP [YLR047C 278-291], the normalised SPOT signal, Boehringer light units (BLU); mean over the file's lines of this peptide was 118.

As to SDTNDIKTPHPERP [YER169W 626-639], the normalised SPOT signal, Boehringer light units (BLU); mean over the file's lines of this peptide came out at 114.

Molecule SETKSVPSIEPFKP [YER032W 653-666] came in with a normalised SPOT signal, Boehringer light units (BLU); mean over the file's lines of this peptide of 62.5.

In the case of SEKPEETPNPLKP [YKL077W 65-77], the normalised SPOT signal, Boehringer light units (BLU); mean over the file's lines of this peptide came to 85.4.

In turn, SEWNWPQPVILKP [YKR002W 264-276] showed a normalised SPOT signal, Boehringer light units (BLU); mean over the file's lines of this peptide of 54.4.

Take SKGARFLPAPHRP [YGR154C 61-73]: the normalised SPOT signal, Boehringer light units (BLU); mean over the file's lines of this peptide amounted to 1020.

Consider SIPSKNTPDASKP [YLR335W 355-367], for which the normalised SPOT signal, Boehringer light units (BLU); mean over the file's lines of this peptide is 64.2.

For the molecule SLEHDGRPKTIKP [YKL077W 80-92], the normalised SPOT signal, Boehringer light units (BLU); mean over the file's lines of this peptide amounted to 56.6.

For SDTKTVVPVTNKP [YML035C 237-249], the normalised SPOT signal, Boehringer light units (BLU); mean over the file's lines of this peptide was found to be 28.6.

SAIPLGTPEKGKP [YMR086W 669-681] displayed a normalised SPOT signal, Boehringer light units (BLU); mean over the file's lines of this peptide of 105.

In the case of SMTTRSSHNDPIKP [YAL047C 42-55], the normalised SPOT signal, Boehringer light units (BLU); mean over the file's lines of this peptide came to 205.

SIYTSWARDNPSKP [YHR209W 240-253] registered a normalised SPOT signal, Boehringer light units (BLU); mean over the file's lines of this peptide of 178.

In turn, SGDAALVKFVPSKP [YBR118W 394-407] registered a normalised SPOT signal, Boehringer light units (BLU); mean over the file's lines of this peptide of 52.8.

The molecule SSSIKLQDQDPSKP [YOR205C 26-39] showed a normalised SPOT signal, Boehringer light units (BLU); mean over the file's lines of this peptide of 46.

Molecule SLPTSSSAKAPLRP [YOR266W 165-178] returned a normalised SPOT signal, Boehringer light units (BLU); mean over the file's lines of this peptide of 37.9.

For the molecule SAKEEENPVEVKP [YPR112C 621-633], the normalised SPOT signal, Boehringer light units (BLU); mean over the file's lines of this peptide turned out to be 63.3.

SGLDGILEDEPSRP [YPR117W 1516-1529] returned a normalised SPOT signal, Boehringer light units (BLU); mean over the file's lines of this peptide of 30.6.

As to RYASSLPPNALKP [YGL191W 8-20], the normalised SPOT signal, Boehringer light units (BLU); mean over the file's lines of this peptide turned out to be 219.

The molecule SATPRRASSRPTRP [YNR049C 146-159] yielded a normalised SPOT signal, Boehringer light units (BLU); mean over the file's lines of this peptide of 88.9.

Regarding SISEQYYPEEPTKP [YGR019W 2-15], the normalised SPOT signal, Boehringer light units (BLU); mean over the file's lines of this peptide turned out to be 60.4.

In the case of SGKMRSRSSSPVRP [YKL185W 433-446], the normalised SPOT signal, Boehringer light units (BLU); mean over the file's lines of this peptide stood at 560.

For the molecule SKAGDEERFLPNRP [YPR117W 1308-1321], the normalised SPOT signal, Boehringer light units (BLU); mean over the file's lines of this peptide came to 144.

Regarding SKAKDKARGNPEKP [YJL036W 11-24], the normalised SPOT signal, Boehringer light units (BLU); mean over the file's lines of this peptide stood at 124.

SSSLPLPKLRPPRP [YKL097C 59-72]: the normalised SPOT signal, Boehringer light units (BLU); mean over the file's lines of this peptide was found to be 5200.

Molecule SASSNASDSGPQRP [YDL106C 66-79] returned a normalised SPOT signal, Boehringer light units (BLU); mean over the file's lines of this peptide of 172.

As to SANAKLHRTKPVKP [YLR430W 1001-1014], the normalised SPOT signal, Boehringer light units (BLU); mean over the file's lines of this peptide came to 138.

The molecule SLKLNSKPVELKP [YJL041W 617-629] had a normalised SPOT signal, Boehringer light units (BLU); mean over the file's lines of this peptide of 27.9.

The molecule SHEHEEPTYHPPKP [YMR231W 646-659] returned a normalised SPOT signal, Boehringer light units (BLU); mean over the file's lines of this peptide of 9.2.

As to SDDYEELATIPYRP [YOR168W 585-598], the normalised SPOT signal, Boehringer light units (BLU); mean over the file's lines of this peptide turned out to be 45.7.

Consider SFTIPFLPKIPQKP [YLR164W 23-36], for which the normalised SPOT signal, Boehringer light units (BLU); mean over the file's lines of this peptide is 22800.

Regarding SLTIPFLPVLPQKP [YDR178W 31-44], the normalised SPOT signal, Boehringer light units (BLU); mean over the file's lines of this peptide amounted to 129.

As to SIKEEKKPFDKKP [YMR284W 586-598], the normalised SPOT signal, Boehringer light units (BLU); mean over the file's lines of this peptide worked out at 92.3.

Consider SKLKITRNPNPSKP [YHR208W 26-39], for which the normalised SPOT signal, Boehringer light units (BLU); mean over the file's lines of this peptide worked out at 115.

SKRKPSPPSQRRP [YPL141C 761-773]: the normalised SPOT signal, Boehringer light units (BLU); mean over the file's lines of this peptide was determined as 6670.

Turning to SEQDATDPASAKP [YIL115C 491-503], the normalised SPOT signal, Boehringer light units (BLU); mean over the file's lines of this peptide worked out at 49.3.

Take SSFTSQDSQKPLKP [YDL240W 56-69]: the normalised SPOT signal, Boehringer light units (BLU); mean over the file's lines of this peptide was 113.

SKQFLLSPIFAKP [YHR099W 1329-1341] displayed a normalised SPOT signal, Boehringer light units (BLU); mean over the file's lines of this peptide of 169.

Consider SFVDKRNPVDNKP [YOL008W 79-91], for which the normalised SPOT signal, Boehringer light units (BLU); mean over the file's lines of this peptide came to 92.9.

The molecule SHKQKRTLANPDKP [YPR079W 40-53] had a normalised SPOT signal, Boehringer light units (BLU); mean over the file's lines of this peptide of 164.

In the case of SKEVTRASTSPPRP [YDR538W 41-54], the normalised SPOT signal, Boehringer light units (BLU); mean over the file's lines of this peptide turned out to be 226.

SSSALLRRTIPKRP [YDL142C 9-22] gave a normalised SPOT signal, Boehringer light units (BLU); mean over the file's lines of this peptide of 253.

With SASSTPIPVLGKP [YOR098C 775-787], the normalised SPOT signal, Boehringer light units (BLU); mean over the file's lines of this peptide stood at 100.

Regarding SAPQLTVPEPSKP [YNL034W 543-555], the normalised SPOT signal, Boehringer light units (BLU); mean over the file's lines of this peptide is 52.2.

SAKKAPIDYSPSRP [YDL025C 107-120] gave a normalised SPOT signal, Boehringer light units (BLU); mean over the file's lines of this peptide of 0.

For SLHWTGIPFLGKP [YCR025C 79-91], the normalised SPOT signal, Boehringer light units (BLU); mean over the file's lines of this peptide worked out at 116.

Molecule SDSEENEPRRKKP [YMR014W 341-353] returned a normalised SPOT signal, Boehringer light units (BLU); mean over the file's lines of this peptide of 93.2.

The molecule SKIVTLPPTIFKP [YOR341W 710-722] came in with a normalised SPOT signal, Boehringer light units (BLU); mean over the file's lines of this peptide of 159.
